The values below come from patent publication US20200362034A1.

For the experiment, the target named is human glucagon ligand peptide-1 receptor (GLP1R) (human) (UniProt P43220). The experiment is described as follows: cell-based or functional assay.
Sequence of human glucagon ligand peptide-1 receptor (GLP1R) (human) (P43220 24-463): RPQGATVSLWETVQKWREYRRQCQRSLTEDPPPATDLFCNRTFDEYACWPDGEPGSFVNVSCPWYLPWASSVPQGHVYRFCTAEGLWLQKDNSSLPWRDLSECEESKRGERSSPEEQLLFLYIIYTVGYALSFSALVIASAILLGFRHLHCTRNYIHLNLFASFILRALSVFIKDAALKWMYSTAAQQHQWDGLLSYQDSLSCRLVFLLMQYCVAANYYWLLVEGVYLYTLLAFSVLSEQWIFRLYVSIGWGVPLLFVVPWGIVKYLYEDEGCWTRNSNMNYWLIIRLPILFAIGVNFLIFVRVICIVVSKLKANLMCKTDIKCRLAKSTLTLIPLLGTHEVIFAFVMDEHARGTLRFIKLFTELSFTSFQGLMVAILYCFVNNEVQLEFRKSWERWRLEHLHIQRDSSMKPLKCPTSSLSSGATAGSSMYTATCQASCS

As for Extendin-4 (peptide), the EC 50 (nM), cAMP Hunter bioassay on CHO-K1 cells overexpressing human GLP1R stood at 0.46 nM.
